Experimental data as given in patent US20200046811.

Molecular target: T1, Recombinant Human FGF23 (Fibroblast Growth Factor 23) (UniProt Q9GZV9)
T1 sequence: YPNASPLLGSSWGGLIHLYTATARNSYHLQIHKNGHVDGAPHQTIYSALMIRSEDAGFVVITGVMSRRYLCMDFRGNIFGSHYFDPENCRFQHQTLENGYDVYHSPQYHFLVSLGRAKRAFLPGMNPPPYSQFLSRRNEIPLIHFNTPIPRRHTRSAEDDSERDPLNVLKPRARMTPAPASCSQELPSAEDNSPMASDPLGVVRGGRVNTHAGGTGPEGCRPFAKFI

Q: Which “in vitro proteolysis of FGF23, silver stained SDS-PAGE gel” value does the source give for “Recombinant human uPA (urokinase plasminogen activator)” here?
A: smaller fragments are generated on a silver stained SDS-PAGE gel indicating proteolytic cleavage
